Reference: EP1652858A1
Where two headings read alike, the source gives them in different places.

Columns and labels:
HLA-A2402 (human) = experiment: competition vs labelled reference peptide
HLA-A0101 (human) = experiment: competition vs labelled reference peptide
HLA-A0201 (human) = experiment: competition vs labelled reference peptide
HLA-B0702 (human) = experiment: competition vs labelled reference peptide
HLA-B*0702 (human) [1] = experiment: competition binding assay against a labelled reference peptide; Ki from IC50; conditions: remark: other sources report otherwise
HLA-B0801 (human) [2] = experiment: competition binding assay with labelled reference peptide
HLA-B*0702 (human) [3] = experiment: competition binding assay, purified HLA, labelled probe peptide
HLA-B0801 (human) [4] = experiment: competition vs labelled reference peptide; conditions: remark: other sources report otherwise
HLA-Cw0702 (human) = experiment: competition binding assay with labelled reference peptide
HLA-B*3501 (human) = experiment: competition binding assay, purified HLA, labelled probe peptide
[5] = remark: other sources report otherwise

B1: TYSTYGKF (peptide)
peptide: TYSTYGKF
modifications: not checked
B1 showed a Ki (HLA-A2402 (human)) of 192 nM.

B2: … (peptide)
peptide: LVDILAGYGA
modifications: not checked
In the case of B2, the Ki (HLA-A0101 (human)) is reported as 419 nM.

B3: … (peptide)
peptide: YQATVCARA
modifications: not checked
Work on B3 yielded a Ki (HLA-A0201 (human)) of 20 nM.

B4: … (peptide)
peptide: KSTKVPAAY
modifications: not checked
In the case of B4, the Ki (HLA-A0101 (human); [5]) is reported as 950 nM.

B5: … (peptide)
peptide: ATLGFGAYM
modifications: not checked
B5 gave a Ki (HLA-B0702 (human)) of 13000 nM.

B6: … (peptide)
peptide: LPRRGPRLGV
modifications: not checked
With B6 the Ki (HLA-B0702 (human); [5]) was 3 nM and the Ki (HLA-B*0702 (human) [1]) was 3 nM.

B7: … (peptide)
peptide: TWAQPGYPW
modifications: not checked
In the case of B7, the Ki (HLA-A2402 (human)) is reported as 8 nM.

B8: … (peptide)
peptide: ALAHGVRVL
modifications: not checked
Binder B8 has a Ki (HLA-A0201 (human); [5]) of 674 nM and a Ki (HLA-B0702 (human); [5]) of 7950 nM.

B9: … (peptide)
peptide: WLGNIIMYA
modifications: not checked
B9 gave a Ki (HLA-A0201 (human); [5]) of 33 nM.

B10: LPRRGPRL (peptide)
peptide: LPRRGPRL
modifications: not checked
In the case of B10, the Ki (HLA-B0801 (human) [2]; [5]) is reported as 6 nM and the Ki (HLA-B0702 (human); [5]) is reported as 1 nM.

B11: … (peptide)
peptide: APTGSGKST
modifications: not checked
B11 gave a Ki (HLA-B0702 (human)) of 370 nM and an IC50 (HLA-B*0702 (human) [3]) of 370 nM.

B12: … (peptide)
peptide: FLLALLSCLT
modifications: not checked
B12 was tested, and the Ki (HLA-A0201 (human)) was 132 nM.

B13: … (peptide)
peptide: MGSSYGFQY
modifications: not checked
For B13, the Ki (HLA-A0101 (human); [5]) was 1020 nM.

B14: IPLVGAPL (peptide)
peptide: IPLVGAPL
modifications: not checked
Work on B14 yielded a Ki (HLA-B0801 (human) [4]) of 20 nM and an IC50 (HLA-B*0702 (human) [3]) of 25 nM.

B15: … (peptide)
peptide: QIVGGVYLL
modifications: not checked
In the case of B15, the Ki (HLA-A0201 (human)) is reported as 228 nM.

B16: … (peptide)
peptide: LPRRGPRLG
modifications: not checked
In the case of B16, the IC50 (HLA-B*0702 (human) [3]) is reported as 124 nM.

B17: … (peptide)
peptide: TPGERPSGM
modifications: not checked
In the case of B17, the Ki (HLA-B0702 (human)) is reported as 199 nM and the IC50 (HLA-B*0702 (human) [3]) is reported as 199 nM.

B18: … (peptide)
peptide: LYGNEGLGW
modifications: not checked
B18 was tested, and the Ki (HLA-A2402 (human)) was 5 nM.

B19: … (peptide)
peptide: LTCGFADLM
modifications: not checked
B19 gave a Ki (HLA-A0101 (human)) of 3550 nM.

B20: … (peptide)
peptide: FIPVESMET
modifications: not checked
B20 gave a Ki (HLA-A0201 (human)) of 934 nM.

B21: … (peptide)
peptide: AAKLSALGL
modifications: not checked
Binder B21 has a Ki (HLA-B0702 (human)) of 277 nM and an IC50 (HLA-B*0702 (human) [3]) of 277 nM.

B22: … (peptide)
peptide: APLGGAARA
modifications: not checked
In the case of B22, the Ki (HLA-B0702 (human)) is reported as 115 nM and the IC50 (HLA-B*0702 (human) [3]) is reported as 115 nM.

B23: … (peptide)
peptide: IMAKNEVFCV
modifications: not checked
In the case of B23, the Ki (HLA-A0201 (human); [5]) is reported as 199 nM.

B24: … (peptide)
peptide: KPTLHGPTPL
modifications: not checked
For B24, the Ki (HLA-B0702 (human); [5]) was 6 nM, the IC50 (HLA-B*0702 (human) [3]; [5]) was 5.8 nM and the Ki (HLA-B*0702 (human) [1]) was 6 nM.

B25: … (peptide)
peptide: SWDQMWKCL
modifications: not checked
B25 gave a Ki (HLA-A2402 (human); [5]) of 670 nM.

B26: … (peptide)
peptide: PAVPQTFQV
modifications: not checked
B26 showed a Ki (HLA-A2402 (human)) of 991 nM.

B27: … (peptide)
peptide: YLKGSSGGPL
modifications: not checked
Work on B27 yielded a Ki (HLA-B0801 (human) [2]) of 10 nM.

B28: … (peptide)
peptide: RLYIGGPLT
modifications: not checked
Binder B28 has a Ki (HLA-A0201 (human)) of 845 nM.

B29: … (peptide)
peptide: VRVCEKMAL
modifications: not checked
For B29, the Ki (HLA-Cw0702 (human)) was 377 nM.

B30: … (peptide)
peptide: CLVDYPYRL
modifications: not checked
For B30, the Ki (HLA-A0201 (human)) was 437 nM.

B31: … (peptide)
peptide: APTLWARMIL
modifications: not checked
Binder B31 has a Ki (HLA-B0702 (human); [5]) of 1 nM and a Ki (HLA-B*0702 (human) [1]) of 1 nM.

B32: … (peptide)
peptide: ARLIVFPDL
modifications: not checked
B32 gave a Ki (HLA-Cw0702 (human)) of 514 nM.

B33: … (peptide)
peptide: QPRGRRQPI
modifications: not checked
B33 gave a Ki (HLA-B0801 (human) [2]; [5]) of 3 nM, a Ki (HLA-B0702 (human); [5]) of 1 nM and a Ki (HLA-B*0702 (human) [1]) of 1 nM.

B34: … (peptide)
peptide: LPAILSPGAL
modifications: not checked
Binder B34 has an IC50 (HLA-B*3501 (human)) of 550 nM.

B35: … (peptide)
peptide: DLCGSVFLV
modifications: not checked
Work on B35 yielded a Ki (HLA-A0201 (human); [5]) of 789 nM.

B36: … (peptide)
peptide: EARQAIRSL
modifications: not checked
In the case of B36, the Ki (HLA-B0801 (human) [4]) is reported as 9 nM.

B37: … (peptide)
peptide: NLPGCSFSI
modifications: not checked
For B37, the Ki (HLA-A0201 (human); [5]) was 83 nM and the Ki (HLA-A2402 (human); [5]) was 8 nM.

B38: … (peptide)
peptide: VIDTLTCGF
modifications: not checked
B38 gave a Ki (HLA-A0101 (human)) of 1130 nM.

B39: … (peptide)
peptide: PFYGKAIPI
modifications: not checked
B39 showed a Ki (HLA-A2402 (human)) of 4 nM.

B40: … (peptide)
peptide: RTKLKLTPI
modifications: not checked
B40 showed a Ki (HLA-B0801 (human) [2]) of 2 nM.

B41: … (peptide)
peptide: PAAYAAQGY
modifications: not checked
In the case of B41, the Ki (HLA-A0101 (human)) is reported as 1610 nM.

B42: … (peptide)
peptide: MALYDVVST
modifications: not checked
B42 was tested, and the Ki (HLA-A0201 (human)) was 1140 nM.

B43: … (peptide)
peptide: NIIMYAPTL
modifications: not checked
For B43, the Ki (HLA-A0201 (human)) was 70 nM.

B44: … (peptide)
peptide: PLLLLLLAL
modifications: not checked
B44 showed a Ki (HLA-A0201 (human)) of 6550 nM.

B45: … (peptide)
peptide: CYDAGCAWY
modifications: not checked
B45 was tested, and the Ki (HLA-A0101 (human); [5]) was greater than 20000 nM.

B46: … (peptide)
peptide: YYRGLDVSVI
modifications: not checked
In the case of B46, the Ki (HLA-A2402 (human)) is reported as 437 nM.

B47: … (peptide)
peptide: TYSTYGKFL
modifications: not checked
Binder B47 has a Ki (HLA-Cw0702 (human)) of 1020 nM.

B48: … (peptide)
peptide: YLFNWAVRT
modifications: not checked
Work on B48 yielded a Ki (HLA-A0201 (human)) of 29 nM.

B49: … (peptide)
peptide: AARALAHGV
modifications: not checked
Binder B49 has a Ki (HLA-B0702 (human)) of 209 nM.

B50: … (peptide)
peptide: GLGWAGWLL
modifications: not checked
In the case of B50, the Ki (HLA-A2402 (human)) is reported as 68 nM.

B51: … (peptide)
peptide: TIMAKNEVF
modifications: not checked
In the case of B51, the Ki (HLA-B0801 (human) [2]) is reported as 6 nM.

B52: … (peptide)
peptide: FTEAMTRYS
modifications: not checked
With B52 the Ki (HLA-A0101 (human)) was 6610 nM.

B53: … (peptide)
peptide: TLWARMILM
modifications: not checked
In the case of B53, the Ki (HLA-A2402 (human)) is reported as 2640 nM.

B54: … (peptide)
peptide: KVLVLNPSV
modifications: not checked
With B54 the Ki (HLA-A0201 (human)) was 50 nM.

B55: … (peptide)
peptide: SMVGNWAKV
modifications: not checked
B55 gave a Ki (HLA-A0201 (human)) of 158 nM.

B56: … (peptide)
peptide: IMACMSADL
modifications: not checked
B56 gave a Ki (HLA-A0201 (human); [5]) of 66 nM.

B57: … (peptide)
peptide: GMFDSSVLC
modifications: not checked
In the case of B57, the Ki (HLA-A0201 (human)) is reported as 71 nM.

B58: … (peptide)
peptide: SVFTGLTHI
modifications: not checked
B58 gave a Ki (HLA-A0201 (human); [5]) of 101 nM.

B59: … (peptide)
peptide: YIPLVGAPL
modifications: not checked
With B59 the Ki (HLA-A0201 (human); [5]) was 337 nM.

B60: … (peptide)
peptide: AQPGYPWPL
modifications: not checked
In the case of B60, the Ki (HLA-A0201 (human)) is reported as 382 nM.

B61: … (peptide)
peptide: FTDNSSPPA
modifications: not checked
For B61, the Ki (HLA-A0101 (human)) was 10 nM.

B62: VMGSSYGF (peptide)
peptide: VMGSSYGF
modifications: not checked
Binder B62 has a Ki (HLA-A2402 (human); [5]) of 33 nM.

B63: … (peptide)
peptide: FWAKHMWNF
modifications: not checked
B63 gave a Ki (HLA-A2402 (human)) of 2 nM.

B64: … (peptide)
peptide: AVMGSSYGF
modifications: not checked
B64 gave a Ki (HLA-A2402 (human); [5]) of 10 nM.

B65: … (peptide)
peptide: LADGGCSGGAY
modifications: not checked
For B65, the Ki (HLA-A0101 (human)) was 60 nM.

B66: … (peptide)
peptide: LVLNPSVAA
modifications: not checked
With B66 the Ki (HLA-A0201 (human)) was 2880 nM.

B67: … (peptide)
peptide: APLGGAARAL
modifications: not checked
Work on B67 yielded a Ki (HLA-B0702 (human); [5]) of 1 nM, an IC50 (HLA-B*0702 (human) [3]; [5]) of 0.8 nM and a Ki (HLA-B*0702 (human) [1]) of 1 nM.

B68: … (peptide)
peptide: GLTHIDAHF
modifications: not checked
With B68 the Ki (HLA-A2402 (human)) was 10 nM.
